The supplement of paper PMC9112550, “Optimization of the antimicrobial peptide Bac7 by deep mutational scanning” (BMC Biology, 2022)

System: Escherichia coli TOP10
Test: shrunken log2 fold change of peptide-encoding DNA abundance (4.5 h post-induction vs induction); higher = less antimicrobial activity (less host growth inhibition)
Conditions: time post-induction: 4.5 h; library: site-saturation at positions 5, 18, 19, 20
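Also: peptides expressed intracellularly from a pBAD plasmid library in pooled LB shake-flask culture, induced with 0.3% L-arabinose, DNA abundance read by NGS, three biological replicates, DESeq2 with apeglm shrinkage.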

Sequence | shrunken log2 fold change
RRIRPRPPRLPRPRPRPFCDPRP | -0.233
RRIRPRPPRLPRPRPRPIPCPRP | -0.172
RRIRERPPRLPRPRPRPMQFPRP | -0.248
RRIRKRPPRLPRPRPRPDVSPRP | -0.382
RRIRTRPPRLPRPRPRPRISPRP | -0.106
RRIRHRPPRLPRPRPRPKQVPRP | -0.482
RRIRKRPPRLPRPRPRPVWYPRP | 0.0528
RRIRMRPPRLPRPRPRPHYLPRP | 0.106
RRIRPRPPRLPRPRPRPDQTPRP | 0.0118
RRIRQRPPRLPRPRPRPMDWPRP | 0.0912
RRIRLRPPRLPRPRPRPCTKPRP | -0.22
RRIRGRPPRLPRPRPRPRGGPRP | 1.05
RRIRIRPPRLPRPRPRPLPLPRP | 0.0472
RRIRNRPPRLPRPRPRPIVIPRP | -0.29
RRIRNRPPRLPRPRPRPMKEPRP | 0.0626
RRIRPRPPRLPRPRPRPDSEPRP | -0.208
RRIRKRPPRLPRPRPRPYNIPRP | -0.133
RRIRSRPPRLPRPRPRPVNPPRP | -0.118
RRIRERPPRLPRPRPRPAMAPRP | 0.631
RRIRRRPPRLPRPRPRPSVVPRP | 0.15
RRIRVRPPRLPRPRPRPEVAPRP | 1.82
RRIRSRPPRLPRPRPRPLRWPRP | 0.776
RRIRDRPPRLPRPRPRPWIKPRP | 0.00902
RRIRDRPPRLPRPRPRPGMTPRP | 0.0654
RRIRWRPPRLPRPRPRPWNKPRP | 0.087

Sequence | shrunken log2 fold change
RRIRMRPPRLPRPRPRPWTLPRP | -0.0343
RRIRVRPPRLPRPRPRPVQWPRP | -0.0327
RRIRYRPPRLPRPRPRPRECPRP | -0.154
RRIRVRPPRLPRPRPRPTIYPRP | -0.498
RRIRRRPPRLPRPRPRPSKNPRP | -0.00571
RRIRQRPPRLPRPRPRPGFPPRP | -0.0539
RRIRSRPPRLPRPRPRPILFPRP | -0.445
RRIRTRPPRLPRPRPRPHILPRP | -0.00363
RRIRFRPPRLPRPRPRPHPLPRP | -0.16
RRIRRRPPRLPRPRPRPEDEPRP | -0.0165
RRIRTRPPRLPRPRPRPFVRPRP | -1.25
RRIRVRPPRLPRPRPRPLHWPRP | 0.243
RRIRCRPPRLPRPRPRPKDIPRP | -0.0796
RRIRFRPPRLPRPRPRPETRPRP | 0.159
RRIRRRPPRLPRPRPRPHPYPRP | -0.069
RRIRARPPRLPRPRPRPRLRPRP | 0.514
RRIRGRPPRLPRPRPRPPAGPRP | 1.37
RRIRSRPPRLPRPRPRPEGMPRP | 0.392
RRIRTRPPRLPRPRPRPEEMPRP | 0.133
RRIRWRPPRLPRPRPRPEHWPRP | 0.83
RRIRWRPPRLPRPRPRPTFWPRP | 0.617
RRIRYRPPRLPRPRPRPNYGPRP | -0.0594
RRIRCRPPRLPRPRPRPYWRPRP | -0.0756
RRIRVRPPRLPRPRPRPNHSPRP | -0.632
RRIRRRPPRLPRPRPRPHRDPRP | 0.546

Sequence | shrunken log2 fold change
RRIRGRPPRLPRPRPRPGIWPRP | 0.758
RRIRNRPPRLPRPRPRPYFLPRP | -0.897
RRIRIRPPRLPRPRPRPNPIPRP | -0.155
RRIRNRPPRLPRPRPRPKITPRP | -0.367
RRIRHRPPRLPRPRPRPWVGPRP | 0.0323
RRIRKRPPRLPRPRPRPITSPRP | 0.22
RRIRHRPPRLPRPRPRPRDKPRP | -0.132
RRIRMRPPRLPRPRPRPISDPRP | 0.0757
RRIRMRPPRLPRPRPRPHCSPRP | 0.183
RRIRNRPPRLPRPRPRPHDTPRP | -0.267
RRIRGRPPRLPRPRPRPLFHPRP | 0.134
RRIRPRPPRLPRPRPRPTCEPRP | 0.252
RRIRLRPPRLPRPRPRPKLDPRP | -0.0265
RRIRHRPPRLPRPRPRPDKRPRP | -0.0145
RRIRDRPPRLPRPRPRPGRTPRP | -0.0421
RRIRVRPPRLPRPRPRPYLNPRP | -0.16
RRIRWRPPRLPRPRPRPAEFPRP | 0.292
RRIRSRPPRLPRPRPRPKVNPRP | -0.333
RRIRNRPPRLPRPRPRPFHLPRP | -0.147
RRIRTRPPRLPRPRPRPLVDPRP | -0.143
RRIRPRPPRLPRPRPRPTGIPRP | 0.726
RRIRIRPPRLPRPRPRPGYSPRP | -0.525
RRIRNRPPRLPRPRPRPEPKPRP | 0.0124
RRIRCRPPRLPRPRPRPLYIPRP | -0.882
RRIRRRPPRLPRPRPRPEKYPRP | 0.135

Sequence | shrunken log2 fold change
RRIRDRPPRLPRPRPRPLKKPRP | 0.31
RRIRYRPPRLPRPRPRPRHCPRP | -0.251
RRIRNRPPRLPRPRPRPWCLPRP | -0.472
RRIRPRPPRLPRPRPRPPELPRP | 0.206
RRIRDRPPRLPRPRPRPADWPRP | 0.305
RRIRERPPRLPRPRPRPQVEPRP | 0.0218
RRIRRRPPRLPRPRPRPAGYPRP | -0.269
RRIRNRPPRLPRPRPRPVVSPRP | -0.153
RRIRYRPPRLPRPRPRPKLQPRP | 0.124
RRIRNRPPRLPRPRPRPSWTPRP | -0.211
RRIRLRPPRLPRPRPRPQTLPRP | -0.0114
RRIRTRPPRLPRPRPRPWHIPRP | -0.115
RRIRGRPPRLPRPRPRPHLCPRP | 0.58
RRIRNRPPRLPRPRPRPPFIPRP | -0.551
RRIRRRPPRLPRPRPRPLQIPRP | 0.0422
RRIRYRPPRLPRPRPRPKQVPRP | 0.234
RRIRWRPPRLPRPRPRPATAPRP | 0.983
RRIRGRPPRLPRPRPRPKPIPRP | 0.177
RRIRLRPPRLPRPRPRPHKLPRP | -0.1
RRIRHRPPRLPRPRPRPRYIPRP | -0.528
RRIRPRPPRLPRPRPRPSRWPRP | 0.611
RRIRQRPPRLPRPRPRPHYDPRP | -0.295
RRIRHRPPRLPRPRPRPCYWPRP | -0.026
RRIRHRPPRLPRPRPRPDIFPRP | -0.223
RRIRCRPPRLPRPRPRPKIDPRP | -0.0573

Sequence | shrunken log2 fold change
RRIRRRPPRLPRPRPRPRPSPRP | 0.781
RRIRQRPPRLPRPRPRPPGNPRP | 0.246
RRIRLRPPRLPRPRPRPSGIPRP | -0.267
RRIRCRPPRLPRPRPRPHCHPRP | -0.475
RRIRWRPPRLPRPRPRPILDPRP | 0.187
RRIRMRPPRLPRPRPRPVTFPRP | -0.0159
RRIRKRPPRLPRPRPRPYHTPRP | -0.673
RRIRSRPPRLPRPRPRPVNAPRP | 0.319
RRIRDRPPRLPRPRPRPSKHPRP | -0.263
RRIRMRPPRLPRPRPRPAAFPRP | 0.503
RRIRRRPPRLPRPRPRPRQIPRP | 0.452
RRIRARPPRLPRPRPRPKIAPRP | 0.177
RRIRARPPRLPRPRPRPYTCPRP | -0.0591
RRIRQRPPRLPRPRPRPFWDPRP | 0.213
RRIRIRPPRLPRPRPRPCINPRP | -0.355
RRIRQRPPRLPRPRPRPIQKPRP | -0.0187
RRIRFRPPRLPRPRPRPPQGPRP | 0.171
RRIRCRPPRLPRPRPRPLRDPRP | 0.948
RRIRCRPPRLPRPRPRPICLPRP | -0.127
RRIRLRPPRLPRPRPRPQRQPRP | 0.316
RRIRSRPPRLPRPRPRPLNSPRP | -0.327
RRIRVRPPRLPRPRPRPRAQPRP | 0.126
RRIRYRPPRLPRPRPRPMLAPRP | -0.269
RRIRSRPPRLPRPRPRPLSCPRP | 0.0284
RRIRKRPPRLPRPRPRPGPNPRP | 0.795

Sequence | shrunken log2 fold change
RRIRCRPPRLPRPRPRPTFTPRP | -0.416
RRIRERPPRLPRPRPRPLPPPRP | 0.124
RRIRLRPPRLPRPRPRPHKQPRP | -0.0935
RRIRHRPPRLPRPRPRPWNEPRP | -0.171
RRIRCRPPRLPRPRPRPTRSPRP | 0.643
RRIRERPPRLPRPRPRPSNPPRP | -0.681
RRIRARPPRLPRPRPRPVGSPRP | 0.383
RRIRFRPPRLPRPRPRPGMGPRP | 0.102
RRIRQRPPRLPRPRPRPIDTPRP | -0.216
RRIRKRPPRLPRPRPRPSYVPRP | -0.294
RRIRLRPPRLPRPRPRPHPHPRP | -0.0325
RRIRFRPPRLPRPRPRPRFIPRP | -0.498
RRIRSRPPRLPRPRPRPPIRPRP | 0.129
RRIRERPPRLPRPRPRPRPMPRP | -0.0942
RRIRFRPPRLPRPRPRPCFRPRP | -0.45
RRIRFRPPRLPRPRPRPCQKPRP | 0.033
RRIRERPPRLPRPRPRPWCAPRP | -0.158
RRIRQRPPRLPRPRPRPAAKPRP | -0.0272
RRIRMRPPRLPRPRPRPPVPPRP | 1.01
RRIRLRPPRLPRPRPRPNYTPRP | -0.91
RRIRYRPPRLPRPRPRPHSSPRP | -0.207
RRIRMRPPRLPRPRPRPFDEPRP | -0.0062
RRIRTRPPRLPRPRPRPLFKPRP | 1.5
RRIRDRPPRLPRPRPRPGCEPRP | 0.852
RRIRQRPPRLPRPRPRPWWFPRP | -0.0566
